B1: WT A328V: P450BM3 variant: A328V (protein, listed as Bacillus megaterium)
chain: TIKEMPQPKTFGELKNLPLLNTDKPVQALMKIADELGEIFKFEAPGRVTRYLSSQRLIKEACDESRFDKNLSQALKFVRDFAGDGLFTSWTHEKNWKKAHNILLPSFSQQAMKGYHAMMVDIAVQLVQKWERLNADEHIEVPEDMTRLTLDTIGLCGFNYRFNSFYRDQPHPFITSMVRALDEAMNKLQRANPDDPAYDENKRQFQEDIKVMNDLVDKIIADRKASGEQSDDLLTHMLNGKDPETGEPLDDENIRYQIITFLIAGHETTSGLLSFALYFLVKNPHVLQKAAEEAARVLVDPVPSYKQVKQLKYVGMVLNEALRLWPTVPAFSLYAKEDTVLGGEYPLEKGDELMVLIPQLHRDKTIWGDDVEEFRPERFENPSAIPQHAFKPFGNGQRACIGQQFALHEATLVLGMMLKHFDFEDHTNYELDIKETLTLKPEGFVVKAKSKKIPLGGIPSPSTEQSAKKVRKKAENAHNTPLLVLYGSNMGTAEGTARDLADIAMSKGFAPQVATLDSHAGNLPREGAVLIVTASYNGHPPDNAKQFVDWLDQASADEVKGVRYSVFGCGDKNWATTYQKVPAFIDETLAAKGAENIADRGEADASDDFEGTYEEWREHMWSDVAAYFNLDIENSEDNKSTLSLQFVDSAADMPLAKMHGAFSTNVVASKELQQPGSARSTRHLEIELPKEASYQEGDHLGVIPRNYEGIVNRVTARFGLDASQQIRLEAEEEKLAHLPLAKTVSVEELLQYVELQDPVTRTQLRAMAAKTVCPPHKVELEALLEKQAYKEQVLAKRLTMLELLEKYPACEMKFSEFIALLPSIRPRYYSISSSPRVDEKQASITVSVVSGEAWSGYGEYKGIASNYLAELQEGDTITCFISTPQSEFTLPKDPETPLIMVGPGTGVAPFRGFVQARKQLKEQGQSLGEAHLYFGCRSPHEDYLYQEELENAQSEGIITLHTAFSRMPNQPKTYVQHVMEQDGKKLIELLDQGAHFYICGDGSQMAPAVEATLMKSYADVHQVSEADARLWLQQLEEKGRYAKDVWAG
modifications: cytochrome P450NADPH-P-450 reductase precursor, cytochrome P450 (BM3), CYP102A1
B2: 9-10A TS: V78A, P142S, T175I, A184V, S226R, H236Q, E252G, A290V, L353V, I366V, E442K (protein, listed as Bacillus megaterium)
chain: TIKEMPQPKTFGELKNLPLLNTDKPVQALMKIADELGEIFKFEAPGRVTRYLSSQRLIKEACDESRFDKNLSQALKFARDFAGDGLFTSWTHEKNWKKAHNILLPSFSQQAMKGYHAMMVDIAVQLVQKWERLNADEHIEVSEDMTRLTLDTIGLCGFNYRFNSFYRDQPHPFIISMVRALDEVMNKLQRANPDDPAYDENKRQFQEDIKVMNDLVDKIIADRKARGEQSDDLLTQMLNGKDPETGEPLDDGNIRYQIITFLIAGHETTSGLLSFALYFLVKNPHVLQKVAEEAARVLVDPVPSYKQVKQLKYVGMVLNEALRLWPTAPAFSLYAKEDTVLGGEYPLEKGDEVMVLIPQLHRDKTVWGDDVEEFRPERFENPSAIPQHAFKPFGNGQRACIGQQFALHEATLVLGMMLKHFDFEDHTNYELDIKETLTLKPKGFVVKAKSKKIPLGGIPSPSTEQSAKKVRKKAENAHNTPLLVLYGSNMGTAEGTARDLADIAMSKGFAPQVATLDSHAGNLPREGAVLIVTASYNGHPPDNAKQFVDWLDQASADEVKGVRYSVFGCGDKNWATTYQKVPAFIDETLAAKGAENIADRGEADASDDFEGTYEEWREHMWSDVAAYFNLDIENSEDNKSTLSLQFVDSAADMPLAKMHGAFSTNVVASKELQQPGSARSTRHLEIELPKEASYQEGDHLGVIPRNYEGIVNRVTARFGLDASQQIRLEAEEEKLAHLPLAKTVSVEELLQYVELQDPVTRTQLRAMAAKTVCPPHKVELEALLEKQAYKEQVLAKRLTMLELLEKYPACEMKFSEFIALLPSIRPRYYSISSSPRVDEKQASITVSVVSGEAWSGYGEYKGIASNYLAELQEGDTITCFISTPQSEFTLPKDPETPLIMVGPGTGVAPFRGFVQARKQLKEQGQSLGEAHLYFGCRSPHEDYLYQEELENAQSEGIITLHTAFSRMPNQPKTYVQHVMEQDGKKLIELLDQGAHFYICGDGSQMAPAVEATLMKSYADVHQVSEADARLWLQQLEEKGRYAKDVWAG
modifications: cytochrome P450NADPH-P-450 reductase precursor, cytochrome P450 (BM3), CYP102A1
notes: V78A, P142S, T175I, A184V, S226R, H236Q, E252G, A290V, L353V, I366V, E442K

Test: P450BM3 compilation plate screen (GC, cyclopropane peaks)
Type: biochemical
Conditions: P450BM3 variants; for de: diastereomeric excess = ([cis] − [trans])/([cis] + [trans]); for Absolute activity: sum of the area of the cyclopropane peaks over the area of the internal standard

Molecule	de	Absolute activity	ee (cis) ((R,S)-(S,R), chiral β-CDX GC)
B1	−100	0.00083	–
B2	−75	0.00192	−54

Source: US20150267232A1, “IN VIVO AND IN VITRO CARBENE INSERTION AND NITRENE TRANSFER REACTIONS CATALYZED BY HEME ENZYMES” (California Institute of Technology, priority 2012, published 2015)
